Measurements taken from patent publication US20230272047A1 (University of Washington, published 2023).
Numbering of substitutions follows the chain as printed. Names may count otherwise.

B1: 3DS2 (designed binder)
chain: TEDEEYEERVREALEEAKKKNEHNEELVAQIALLILGAVVVIVAESEEAAKRAAQYVRERVPNAKVYVFDNFVFVHAESREDQEAAWRAAQEAM
notes: Expressed in E. coli; the N-terminal His tag was cleaved with TEV
B2: 3DS10 (designed binder)
chain: TEEERLREEVKRVAQRAEEEGANEEEIAQILLLALNAAVVVVVESEEQAERVAQYIREVVPEALVIVYNNFVVIFVESDEAARRAWEAAERAQ
notes: as for B1
B3: 3DS11 (designed binder)
chain: DLEERVRKAVNEAQEEAKRNNLDENEAALEAALRLGVVVLVVVDSEEQAERVAKYVHKLVPSVRVVIYNNLVFFHVDTDEEARRVYEAAERAQ
notes: as for B1
B4: 3DS6 (designed binder)
chain: DKEDELRELAKELVREYEKRGVSEEEIALLVALAANFAVVIVFDNEEQAERAAKYIKKKLPSAVIVIFNNFVFVYVDSREDERIAWELAQEAQ
notes: as for B1
B5: 3DS23 (designed binder)
chain: DEEEEEKEEIRRQLDEARERGVSEEEAAIEVAQNFNFIVVVVVDSEEEAERVAEYVRREVPRVHIVIVQNVVFFRVDSDEDARRVWELAQKAQ
notes: as for B1
B6: 2DS25 (purified from E. coli) (designed binder)
chain: DEEEIQKAIEELLRKGVSEEEAAIIIAQRFNVAVVVVVQDERQAKHISEYIRRYIPEADVILFANIVVIKVETEELRKRVWEAAQKAY
notes: Expressed in E. coli with an N-terminal histidine tag and a TEV site; Eluted as a monomer on SEC
B7: 2DS25_KO (W81A/Q85A) (designed binder)
chain: B6 chain with W81A, Q85A

What was measured:
[1] = molecular target: T1, human transferrin receptor 1 ectodomain, biotinylated (human, UniProt P02786 89-760, biotinylated in vitro (Avidity kit) at the C-terminal Avi tag); assay: single concentration biolayer interferometry (1 µM design)
T1 construct: extracellular domain; Expressed as IgK-sFLAG-His-Sen-TEV-TfR1-his-Avi in the Daedalus system; The N-terminal expression tag was cleaved with TEV; In yeast display it was detected with streptavidin-phycoerythrin; also called hTfR; hTfR ectodomain; not shown: C-terminal his-Avi tag (printed 'his-Avin')

[2] = molecular target: T1, human transferrin receptor 1 …; assay: biolayer interferometry, biotinylated hTfR on streptavidin biosensors
[3] = molecular target: T1, human transferrin receptor 1 …; assay: single concentration biolayer interferometry, biotinylated hTfR on streptavidin biosensors

T1 sequence (P02786 89-760): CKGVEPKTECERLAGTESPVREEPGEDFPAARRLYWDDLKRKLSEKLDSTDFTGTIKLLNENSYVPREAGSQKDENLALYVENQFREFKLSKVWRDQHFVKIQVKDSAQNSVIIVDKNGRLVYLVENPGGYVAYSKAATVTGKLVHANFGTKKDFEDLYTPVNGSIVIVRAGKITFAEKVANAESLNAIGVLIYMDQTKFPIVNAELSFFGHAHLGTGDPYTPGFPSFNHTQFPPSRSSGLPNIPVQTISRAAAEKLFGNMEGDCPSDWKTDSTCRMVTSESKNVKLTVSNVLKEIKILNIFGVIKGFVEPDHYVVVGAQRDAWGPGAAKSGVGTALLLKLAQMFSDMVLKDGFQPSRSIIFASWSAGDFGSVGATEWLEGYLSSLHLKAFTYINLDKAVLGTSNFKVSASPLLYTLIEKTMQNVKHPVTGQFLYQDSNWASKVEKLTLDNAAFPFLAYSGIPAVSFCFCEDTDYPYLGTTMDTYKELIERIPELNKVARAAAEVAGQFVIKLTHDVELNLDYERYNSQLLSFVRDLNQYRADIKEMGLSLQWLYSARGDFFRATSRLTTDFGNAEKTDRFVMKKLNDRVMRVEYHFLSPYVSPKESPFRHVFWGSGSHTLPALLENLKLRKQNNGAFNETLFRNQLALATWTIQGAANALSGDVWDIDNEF

Binder	binding result [1]	also measured
B1	binds	
B2	binds	
B3	binds	
B4	binds	
B5	binds	
B6		binding result [2]: binds
B7		binding result [3]: no binding
